Laboratory results as given in paper PMC3575842.

Tests used:
Assay in all cases: MITOMI saturation binding
Sox21a = Sox21a (Drosophila melanogaster, UniProt Q9VUD1 1-388)
Gsc = Gsc (Drosophila melanogaster, UniProt P54366 1-415)
z = target: T1, z (Drosophila melanogaster, UniProt P09956 1-575)
T1 sequence: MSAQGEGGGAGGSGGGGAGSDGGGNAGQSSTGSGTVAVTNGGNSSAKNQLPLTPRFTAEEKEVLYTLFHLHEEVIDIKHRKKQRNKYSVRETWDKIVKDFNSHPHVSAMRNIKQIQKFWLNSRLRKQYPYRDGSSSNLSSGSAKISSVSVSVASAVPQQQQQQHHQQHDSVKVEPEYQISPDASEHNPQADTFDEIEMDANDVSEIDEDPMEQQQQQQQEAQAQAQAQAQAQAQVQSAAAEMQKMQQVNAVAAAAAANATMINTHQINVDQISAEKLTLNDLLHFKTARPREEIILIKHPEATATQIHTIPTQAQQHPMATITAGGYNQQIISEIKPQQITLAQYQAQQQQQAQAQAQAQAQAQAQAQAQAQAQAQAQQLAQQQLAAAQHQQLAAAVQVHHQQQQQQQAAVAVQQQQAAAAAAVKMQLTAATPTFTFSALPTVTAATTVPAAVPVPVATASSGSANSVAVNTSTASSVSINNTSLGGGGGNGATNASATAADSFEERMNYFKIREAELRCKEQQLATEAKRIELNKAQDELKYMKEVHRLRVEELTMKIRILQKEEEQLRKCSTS

slbo = slbo (Drosophila melanogaster, UniProt Q02637 1-449)
slbo, sequence (Q02637 whole entry): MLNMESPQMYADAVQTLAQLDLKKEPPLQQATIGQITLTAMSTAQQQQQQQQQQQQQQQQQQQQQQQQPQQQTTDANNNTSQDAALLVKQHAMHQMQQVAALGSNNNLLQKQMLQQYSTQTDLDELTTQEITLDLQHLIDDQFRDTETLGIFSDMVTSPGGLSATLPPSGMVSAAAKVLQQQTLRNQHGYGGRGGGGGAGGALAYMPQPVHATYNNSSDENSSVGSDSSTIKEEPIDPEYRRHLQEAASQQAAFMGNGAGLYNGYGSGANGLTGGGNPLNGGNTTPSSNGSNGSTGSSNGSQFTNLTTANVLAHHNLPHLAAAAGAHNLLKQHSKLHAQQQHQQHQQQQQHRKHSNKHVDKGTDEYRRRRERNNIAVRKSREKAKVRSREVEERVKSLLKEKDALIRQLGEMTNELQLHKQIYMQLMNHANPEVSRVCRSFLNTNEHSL

gooseberry (gsb) = gooseberry (gsb) (Drosophila melanogaster, UniProt P09082 1-427)
gooseberry (gsb), sequence (P09082 whole entry): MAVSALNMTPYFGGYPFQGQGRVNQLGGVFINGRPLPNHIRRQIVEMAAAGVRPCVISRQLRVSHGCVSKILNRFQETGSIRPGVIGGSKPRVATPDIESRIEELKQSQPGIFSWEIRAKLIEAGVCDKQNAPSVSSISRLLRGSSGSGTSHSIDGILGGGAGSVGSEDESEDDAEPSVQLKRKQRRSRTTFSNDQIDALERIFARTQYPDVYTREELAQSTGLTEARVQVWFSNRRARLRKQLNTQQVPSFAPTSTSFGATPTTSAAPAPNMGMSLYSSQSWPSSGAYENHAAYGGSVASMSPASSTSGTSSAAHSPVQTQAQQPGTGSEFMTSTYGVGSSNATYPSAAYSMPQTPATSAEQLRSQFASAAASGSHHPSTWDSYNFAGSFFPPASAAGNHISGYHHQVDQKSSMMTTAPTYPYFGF

gooseberry-neuro (gsb-n) = gooseberry-neuro (gsb-n) (Drosophila melanogaster, UniProt P09083 1-449)
gooseberry-neuro (gsb-n), sequence (P09083 whole entry): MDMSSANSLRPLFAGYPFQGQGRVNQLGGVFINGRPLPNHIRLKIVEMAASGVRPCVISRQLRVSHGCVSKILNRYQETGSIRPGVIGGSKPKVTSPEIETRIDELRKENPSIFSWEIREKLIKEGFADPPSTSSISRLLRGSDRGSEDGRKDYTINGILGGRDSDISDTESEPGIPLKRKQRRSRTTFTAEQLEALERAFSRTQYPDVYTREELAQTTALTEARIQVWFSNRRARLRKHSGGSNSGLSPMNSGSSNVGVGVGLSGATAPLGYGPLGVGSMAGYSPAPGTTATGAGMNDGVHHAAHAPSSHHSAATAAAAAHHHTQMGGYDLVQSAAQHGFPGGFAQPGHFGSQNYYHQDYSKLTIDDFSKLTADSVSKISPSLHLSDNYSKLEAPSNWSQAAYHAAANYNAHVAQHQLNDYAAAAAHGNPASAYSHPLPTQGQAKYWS

Gsc, sequence (P54366 whole entry): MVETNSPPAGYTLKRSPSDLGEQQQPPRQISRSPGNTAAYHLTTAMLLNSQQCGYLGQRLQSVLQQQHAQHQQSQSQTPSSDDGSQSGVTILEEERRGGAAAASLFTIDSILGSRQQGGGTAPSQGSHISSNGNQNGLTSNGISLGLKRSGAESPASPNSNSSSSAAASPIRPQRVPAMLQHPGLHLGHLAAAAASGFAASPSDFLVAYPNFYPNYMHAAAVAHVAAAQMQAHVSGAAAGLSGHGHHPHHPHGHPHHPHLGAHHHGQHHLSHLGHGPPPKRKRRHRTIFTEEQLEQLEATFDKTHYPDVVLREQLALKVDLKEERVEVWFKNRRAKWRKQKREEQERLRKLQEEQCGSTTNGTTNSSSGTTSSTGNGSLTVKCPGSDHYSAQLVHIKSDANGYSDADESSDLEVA

B1: D motif (dsDNA)
DNA 1: CGCGTCCATTGTTCTCTCCGGCGGTATGAC
DNA 2: GTCATACCGCCGGAGAGAACAATGGACGCG
**Q.** Does B1 bind (Sox21a)?
**A.** binds

B2: bcd motif (dsDNA)
DNA 1: CGCGGATTAGCTCCGGCGGTATGAC
DNA 2: GTCATACCGCCGGAGCTAATCCGCG
**Q.** Does B2 bind (Gsc)?
**A.** binds

**Q.** Does B2 bind (z)?
**A.** binds

B3: gt motif (dsDNA)
DNA 1: CGCATTACGTAATAACTCCGGCGGTATGAC
DNA 2: GTCATACCGCCGGAGTTATTACGTAATGCG
**Q.** Does B3 bind (slbo)?
**A.** binds

B4: prd motif (dsDNA)
DNA 1: CGCCCAATTTGTCACGCTCTCCGGCGGTATGAC
DNA 2: GTCATACCGCCGGAGAGCGTGACAAATTGGGCG
**Q.** What does the source list for B4?
**A.** binding result (gooseberry (gsb)): binds; binding result (z): binds; binding result (gooseberry-neuro (gsb-n)): binds
